Laboratory results as given in publication PMC3967714 (Cell reports, 2013).
Where no end group is shown, it is not given here.

T1: Dido3 PHD finger (Homo sapiens, UniProt Q9BTC0)
T1 sequence (Q9BTC0 266-325): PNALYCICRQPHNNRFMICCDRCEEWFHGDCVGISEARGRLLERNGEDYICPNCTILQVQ

T2: Dido3 PHD D286A (UniProt Q9BTC0-4 266-325, D286A)
T2 sequence: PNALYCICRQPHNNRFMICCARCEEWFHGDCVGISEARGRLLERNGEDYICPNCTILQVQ

T3: Dido3 PHD E289A (UniProt Q9BTC0-4 266-325, E289A)
T3 sequence: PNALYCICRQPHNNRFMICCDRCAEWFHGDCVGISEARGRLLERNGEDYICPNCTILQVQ

T4: Dido3 PHD H277A (UniProt Q9BTC0-4 266-325, H277A)
T4 sequence: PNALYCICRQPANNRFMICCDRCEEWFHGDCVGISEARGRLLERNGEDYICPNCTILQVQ


Columns and labels:
[1] = target: T1, Dido3 PHD finger; assay: 1H,15N HSQC NMR titration of 15N-labeled Dido3 PHD with histone peptides; assay type: binding; conditions: for chemical-shift changes in 1H,15N HSQC spectra: peptides aa 1–12 of H3 (H3K4me0: aa 1–19)
[2] = target: T1, Dido3 PHD finger; assay type: binding; conditions: wild-type Dido3 PHD, tryptophan fluorescence and NMR, peptides aa 1–12 of H3
[3] = target: T2, Dido3 PHD D286A; assay: other fluorescence titration + NMR titration
[4] = target: T3, Dido3 PHD E289A; assay: other fluorescence titration + NMR titration
[5] = target: T4, Dido3 PHD H277A; assay: other fluorescence titration + NMR titration

Molecule	chemical-shift changes in 1H,15N HSQC spectra [1]	weaker binding relative to H3K4me3 [2]	exchange regime on the NMR timescale ([1]; peptide aa 1–12 of H3)	fold decrease of binding against the wild type [3]	fold decrease of binding against the wild type [4]	binding result [5]
H3K4me2: H3K4me2 peptide (aa 1–12 of H3)	very similar pattern of chemical-shift changes	6 fold	–	–	–	–
H3K4me1: H3K4me1 peptide (aa 1–12 of H3)	very similar pattern of chemical-shift changes	85 fold	intermediate exchange regime	–	–	–
ARTK(Me3)QTARKSTG (peptide, UniProt P68431 2-13, looked up) [H3K4me3 peptide (aa 1-12 of H3)]	–	–	–	~200 fold	~4 fold	binds
